Assay results: paper PMC2156126

Target: GST-VCA (GST fusion of human N-WASP residues 392-505) on glutathione Sepharose (human) (UniProt O00401)
Test: pull-down

Sequence of GST-VCA (GST fusion of human N-WASP residues 392-505) on glutathione Sepharose (human) (O00401 392-505): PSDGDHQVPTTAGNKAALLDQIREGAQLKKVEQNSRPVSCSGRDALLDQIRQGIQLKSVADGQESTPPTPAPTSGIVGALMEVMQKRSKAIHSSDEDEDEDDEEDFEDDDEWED

percent depleted from the extract by the beads: > 80%
Substance: Arp2/3 complex endogenous in human platelet extracts (from UniProt P61158;P61160;O15145)
